Laboratory results reported in publication PMC9352680, “A comprehensive thermodynamic model for RNA binding by the Saccharomyces cerevisiae Pumilio protein PUF4”.

T1: PUF4 RNA-binding domain (Saccharomyces cerevisiae, UniProt P25339 537-888)
T1 sequence: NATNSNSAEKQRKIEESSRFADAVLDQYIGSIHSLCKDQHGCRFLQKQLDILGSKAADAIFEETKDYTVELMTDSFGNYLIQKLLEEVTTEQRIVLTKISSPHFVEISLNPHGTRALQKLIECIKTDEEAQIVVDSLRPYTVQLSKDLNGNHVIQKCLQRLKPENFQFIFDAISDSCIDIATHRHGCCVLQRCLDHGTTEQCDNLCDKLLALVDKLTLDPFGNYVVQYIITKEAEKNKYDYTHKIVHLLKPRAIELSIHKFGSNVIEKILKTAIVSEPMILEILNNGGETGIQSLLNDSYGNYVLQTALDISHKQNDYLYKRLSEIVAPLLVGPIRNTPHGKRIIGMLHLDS


Molecular target: T1, PUF4 RNA-binding domain
Experiment: Mg; RNA-MaP; 20 mM Na-HEPES pH 7.4, 30 mM KOAc, 0.75 mM MgCl2, 0.1% Tween-20, 5% glycerol, 0.1 mg/mL BSA, 2 mM DTT; 25 C; 0.0125-409.6 nM protein
Details: tags: N-His6-TEV cleaved; C-SNAP kept, Cy3B-labelled; label: tethered on chip by stalled RNA polymerase

Binder | Kd [nM]
UCUCUUUGUACCUCGAUCUCUU (ssRNA) [Ic_S1_P5E.1_K5.1_C5.1_H5.1_A5.1_[T5C]_[T6C]_[A7T]_F5.1_[T8C]_[T9G]_T5.1] | 660
UCUCUUUGUAUCUUUCUCUU (ssRNA) [Ic_S1_P3E.1_K3.1_C3.1_H3.1_A3.1_[A6C]_F3.1_[A8T]_T3.1] | 32.3
UCUCUUUGUACUUCUAUCUCUU (ssRNA) [Ic_S1_P5E.1_K5.1_C5.1_H5.1_A5.1_[T5C]_[A7T]_F5.1_[T8C]_T5.1] | 7.77
UCUCUUUGUAUGGCUGUCUCUU (ssRNA) [Ic_S1_P5E.1_K5.1_C5.1_H5.1_A5.1_[T6G]_[A7G]_F5.1_[T8C]_[A10G]_T5.1] | 2120
UCUCUUUGUAUCCGUGUCUCUU (ssRNA) [Ic_S1_P5E.1_K5.1_C5.1_H5.1_A5.1_[T6C]_[A7C]_F5.1_[T8G]_[A10G]_T5.1] | 1060
UCUCUUUGUAAAAUUUUCUCUU (ssRNA) [Ic_S1_P5E.1_K5.1_C5.1_H5.1_A5.1_[T5A]_[T6A]_F5.1_[A10T]_T5.1] | 23.8
UCUCUUUGUAAGCCAUUCUCUU (ssRNA) [Ic_S1_P5E.1_K5.1_C5.1_H5.1_A5.1_[T5A]_[T6G]_[A7C]_F5.1_[T8C]_[T9A]_[A10T]_T5.1] | 317
UCUCUUUGUAUUCCCAUCUCUU (ssRNA) [Ic_S1_P5E.1_K5.1_C5.1_H5.1_A5.1_[A7C]_F5.1_[T8C]_[T9C]_T5.1] | 587
UCUCUUUGUAAUACUUUCUCUU (ssRNA) [Ic_S1_P5E.1_K5.1_C5.1_H5.1_A5.1_[T5A]_F5.1_[T8C]_[A10T]_T5.1] | 212
UCUCUUUGUAAGUACGUCUCUU (ssRNA) [Ic_S1_P5E.1_K5.1_C5.1_H5.1_A5.1_[T5A]_[T6G]_[A7T]_F5.1_[T8A]_[T9C]_[A10G]_T5.1] | 2240
UCUCUUUGUAUGUCCAUCUCUU (ssRNA) [Ic_S1_P5E.1_K5.1_C5.1_H5.1_A5.1_[T6G]_[A7T]_F5.1_[T8C]_[T9C]_T5.1] | 363
UCUCUUUGUAGCAGCUUCUCUU (ssRNA) [Ic_S1_P5E.1_K5.1_C5.1_H5.1_A5.1_[T5G]_[T6C]_F5.1_[T8G]_[T9C]_[A10T]_T5.1] | > 2300
UCUCUUUGUAUUUUUCUCUU (ssRNA) [Ib_S1_P3E.1_K3.1_C3.1_H3.1_A3.1_[A6T]_F3.1_[A8T]_T3.1] | 26.1
UCUCUUUGUAAUCCUUUCUCUU (ssRNA) [Ic_S1_P5E.1_K5.1_C5.1_H5.1_A5.1_[T5A]_[A7C]_F5.1_[T8C]_[A10T]_T5.1] | 697
UCUCUUUGUAAGUAUAUCUCUU (ssRNA) [Ic_S1_P5E.1_K5.1_C5.1_H5.1_A5.1_[T5A]_[T6G]_[A7T]_F5.1_[T8A]_T5.1] | 95
UCUCUUUGUAUGGCAUUCUCUU (ssRNA) [Ic_S1_P5E.1_K5.1_C5.1_H5.1_A5.1_[T6G]_[A7G]_F5.1_[T8C]_[T9A]_[A10T]_T5.1] | 1040
UCUCUUUGUAAAUCACUCUCUU (ssRNA) [Ic_S1_P5E.1_K5.1_C5.1_H5.1_A5.1_[T5A]_[T6A]_[A7T]_F5.1_[T8C]_[T9A]_[A10C]_T5.1] | 63.1
UCUCUUUGUAUAUAAAUCUCUU (ssRNA) [Ic_S1_P5E.1_K5.1_C5.1_H5.1_A5.1_[T6A]_[A7T]_F5.1_[T8A]_[T9A]_T5.1] | 8.13
UCUCUUUGUACGAACCUCUCUU (ssRNA) [Ic_S1_P5E.1_K5.1_C5.1_H5.1_A5.1_[T5C]_[T6G]_F5.1_[T8A]_[T9C]_[A10C]_T5.1] | 1700
UCUCUUUGUAAACGCCUCUCUU (ssRNA) [Ic_S1_P5E.1_K5.1_C5.1_H5.1_A5.1_[T5A]_[T6A]_[A7C]_F5.1_[T8G]_[T9C]_[A10C]_T5.1] | 1060
UCUCUUUGUACUCCCAUCUCUU (ssRNA) [Ic_S1_P5E.1_K5.1_C5.1_H5.1_A5.1_[T5C]_[A7C]_F5.1_[T8C]_[T9C]_T5.1] | 1300
UCUCUUUGUAAGUUUGUCUCUU (ssRNA) [Ic_S1_P5E.1_K5.1_C5.1_H5.1_A5.1_[T5A]_[T6G]_[A7T]_F5.1_[A10G]_T5.1] | 697
UCUCUUUGUACCCUAGUCUCUU (ssRNA) [Ic_S1_P5E.1_K5.1_C5.1_H5.1_A5.1_[T5C]_[T6C]_[A7C]_F5.1_[T9A]_[A10G]_T5.1] | 4.32
UCUCUUGUUAUAUAUCUCUU (ssRNA) [Ib_S1_P3E.1_K3.1_C3.1_H3.1_[T1G]_[G2T]_A3.1_F3.1_T3.1] | 47
UCUCUUUGUAUACCACUCUCUU (ssRNA) [Ic_S1_P5E.1_K5.1_C5.1_H5.1_A5.1_[T6A]_[A7C]_F5.1_[T8C]_[T9A]_[A10C]_T5.1] | 20.7
UCUCUUUGUACGUAAUUCUCUU (ssRNA) [Ic_S1_P5E.1_K5.1_C5.1_H5.1_A5.1_[T5C]_[T6G]_[A7T]_F5.1_[T8A]_[T9A]_[A10T]_T5.1] | 126
UCUCUUUGUAAUAUAUUCUCUU (ssRNA) [Ic_S1_P5E.1_K5.1_C5.1_H5.1_A5.1_[T5A]_F5.1_[T9A]_[A10T]_T5.1] | 2.21
UCUCUUUGUAUUGCCAUCUCUU (ssRNA) [Ic_S1_P5E.1_K5.1_C5.1_H5.1_A5.1_[A7G]_F5.1_[T8C]_[T9C]_T5.1] | 955
